Here are results for 30 substances from article PMC3949714 (PLoS ONE, 2014).

The nature of series [1]: RP-HPLC retention time (read by the paper as polarity). The conditions noted are these: water/acetonitrile gradient with 0.1% formic acid, MS TIC detection. The format is physicochemical. On the procedure:
An Agilent binary HPLC composing of an Agilent 1100 LC pump, an Agilent 1100 well plate auto-sampler (Agilent Technologies, Santa Clara, CA, USA) and a Jupiter 5 μ (C4, 300 A, 150×2.00 mm, 5 μ) RP HPLC column (Phenomenex, Torrance, CA, USA) were used for separation. The mobile phase flow rate was 200 µl/min and the volume of injection was 20 µL. The separations were performed using a binary solvent gradient; water (Milli-Q; Millipore Corporation, Bedford, MA) which contained 0.1% v/v formic acid was used as the solvent A and acetonitrile (Merck KGaA, Darmstadt, Germany) which contained 0.1% v/v formic acid (Nuplex industries Pty Ltd. (NSW, Australia) was used as the solvent B. The chromatographic separation was achieved using the gradient shown in Table 1.
An API 3000 tandem mass spectrometer equipped with a turbo ion spray was used as the detector. Detection was performed in total ion current (TIC) mode (MS1/Q1), in positive mode, within the range 200–3000 amu. The data were acquired and processed by Analyst 1.5 software (Applied Biosystems, Foster city, CA, USA). Mass spectra were obtained using: declustering potential (DF) of 16 V, focusing potential (FP) of 120 V, Entrance potential (EP) of 10 V, and Ion spray voltage (IS) of 5000 V. Structure identity of fragments was performed using the respective mass/charge (m/z) values of each peptide metabolite. Direct flow injections were carried out using Model 11 plus Harvard Syringe pump (Harvard Apparatus Inc, Holliston, MA, USA).

A short description of series [2]: Biotransformation in homogenised inflamed tissue at pH 5.5 (LC/MS, mean residence time). The conditions noted are these: for MRT: MES pH 5.5, 37°C, 120 min, AUMC/AUC of LC/MS peak intensity.
[3] abbreviates: incubation of BE 1-13, Jupiter C4 column.
Where [4] appears, read: incubation of BE 1-13 (115 µM) in rat inflamed tissue homogenate.
[5] abbreviates: incubation of BE 1-31, Jupiter C4 300 A column, 200 µl/min.
The mark [6] stands for this setting: incubation of BE 1-31 (115 µM) in rat inflamed tissue homogenate.
[7] abbreviates: incubation of BE 1-17, Jupiter C4 column.
Setting [8] is: incubation of BE 1-17 (115 µM) in rat inflamed tissue homogenate.

In turn, “BE 2-12: beta-endorphin fragment, residues 2-12 (GGFMTSEKSQT; Beta-endorphin; UniProt P01189 238-248, looked up, fragment)” gave a Rt in series [1] (setting [3]) of 16.2 min. This substance showed an MRT in series [2] (setting [4]) of 18.1.
In series [1] (setting [5]), “BE 18-31: beta-endorphin fragment, residues 18-31 (FKNAIIKNAYKKGE; Beta-endorphin; UniProt P01189 254-267, looked up, fragment)” showed an RT of 16.1 min. The substance also showed an MRT in series [2] (setting [6]) of 18.1.
Turning to “BE 1-15: beta-endorphin N-terminal fragment, residues 1-15 (YGGFMTSEKSQTPLV; Beta-endorphin; UniProt P01189 237-251, looked up, fragment)”, the RT in series [1] (setting [7]) worked out at 22.33 min; in series [1] (setting [5]), 24.2 min. The MRT in series [2] (setting [8]) stood at 8.3; in series [2] (setting [6]), 12.
The substance “BE 7-16: beta-endorphin fragment, residues 7-16 (SEKSQTPLVT; Beta-endorphin; UniProt P01189 243-252, looked up, fragment)” yielded an RT in series [1] (setting [7]) of 16 min.
Turning to “BE 2-9: des-tyrosine beta-endorphin fragment, residues 2-9 (GGFMTSEK; Beta-endorphin; UniProt P01189 238-245, looked up, fragment)”, the Rt in series [1] (incubation of BE 1-11, Jupiter C4 column) is 15.8 min; in series [1] (setting [3]) it was 15.8 min. Further, the RT is 15.87 min in series [1] (setting [7]) and 18.38 min in series [1] (setting [5]). Also, the MRT stood at 17 in series [2] (incubation of BE 1-11 (115 µM) in rat inflamed tissue homogenate), 19.8 in series [2] (setting [4]), 21 in series [2] (setting [8]) and 20 in series [2] (setting [6]).
“BE 2-15: beta-endorphin fragment, residues 2-15 (GGFMTSEKSQTPLV; Beta-endorphin; UniProt P01189 238-251, looked up, fragment)” had an RT in series [1] (setting [7]) of 21.33 min.
“BE 3-16: beta-endorphin fragment, residues 3-16 (GFMTSEKSQTPLVT; Beta-endorphin; UniProt P01189 239-252, looked up, fragment)” displayed an RT in series [1] (setting [7]) of 20.43 min. In series [2] (setting [8]), the MRT came out at 11.
In turn, “BE 2-16: des-tyrosine beta-endorphin fragment, residues 2-16 (GGFMTSEKSQTPLVT; Beta-endorphin; UniProt P01189 238-252, looked up, fragment)” displayed an RT in series [1] (setting [7]) of 20.43 min. The MRT in series [2] (setting [8]) is 15.1.
In series [1] (setting [5]), “BE 19-31: beta-endorphin C-terminal fragment, residues 19-31 (KNAIIKNAYKKGE; Beta-endorphin; UniProt P01189 255-267, looked up, fragment)” returned an RT of 13.67 min. For the same substance, the MRT in series [2] (setting [6]) turned out to be 80.
The substance “BE 20-24: beta-endorphin intermediate fragment, residues 20-24 (NAIIK; Beta-endorphin; UniProt P01189 256-260, looked up, fragment)” displayed an RT in series [1] (setting [5]) of 16.1 min. In series [2] (setting [6]), this substance registered an MRT of 98.
On to “BE 20-29: beta-endorphin fragment, residues 20-29 (NAIIKNAYKK; Beta-endorphin; UniProt P01189 256-265, looked up, fragment)”, for which the RT in series [1] (setting [5]) came out at 14.3 min. In series [2] (setting [6]), this substance gave an MRT of 8.4.
Turning to “BE 4-13: beta-endorphin fragment, residues 4-13 (FMTSEKSQTP; Beta-endorphin; UniProt P01189 240-249, looked up, fragment)”, the Rt in series [1] (setting [3]) is reported as 15.7 min. The RT in series [1] (setting [7]) was determined as 15.67 min. The same substance displayed an MRT in series [2] (setting [4]) of 18.
With “BE 19-30: beta-endorphin fragment, residues 19-30 (KNAIIKNAYKKG; Beta-endorphin; UniProt P01189 255-266, looked up, fragment)”, the RT in series [1] (setting [5]) amounted to 14.3 min. Moreover, the MRT in series [2] (setting [6]) is reported as 72.2.
Turning to “BE 6-14: beta-endorphin fragment, residues 6-14 (TSEKSQTPL; Beta-endorphin; UniProt P01189 242-250, looked up, fragment)”, in series [1] (setting [7]), the RT turned out to be 14.62 min.
With “BE 10-16: beta-endorphin intermediate fragment, residues 10-16 (SQTPLVT; Beta-endorphin; UniProt P01189 246-252, looked up, fragment)”, the RT in series [1] (setting [5]) came out at 19 min. The “Time observed as metabolite in homogenised inflamed tissue” value in series [2] (formed during incubation of BE 1–31, pH 5.5, 37°C) is “over 60 minutes”. The MRT in series [2] (setting [6]) was found to be 44.3.
“BE 10-18: beta-endorphin fragment, residues 10-18 (SQTPLVTLF; Beta-endorphin; UniProt P01189 246-254, looked up, fragment)” yielded an RT in series [1] (setting [5]) of 28.2 min. The substance also gave an MRT in series [2] (setting [6]) of 13.3.
Substance “BE 15-24: beta-endorphin fragment, residues 15-24 (VTLFKNAIIK; Beta-endorphin; UniProt P01189 251-260, looked up, fragment)” registered an RT in series [1] (setting [5]) of 22.44 min. The substance further gave an MRT in series [2] (setting [6]) of 25.2.
“BE 2-17: des-tyrosine beta-endorphin fragment, residues 2-17 (GGFMTSEKSQTPLVTL; Beta-endorphin; UniProt P01189 238-253, looked up, fragment)” came in with an RT in series [1] (setting [7]) of 24 min. The substance further displayed an MRT in series [2] (setting [8]) of 7.45.
The substance “BE 4-15: beta-endorphin fragment, residues 4-15 (FMTSEKSQTPLV; Beta-endorphin; UniProt P01189 240-251, looked up, fragment)” had an RT in series [1] (setting [7]) of 20.13 min.
The substance “BE 20-28: beta-endorphin intermediate fragment, residues 20-28 (NAIIKNAYK; Beta-endorphin; UniProt P01189 256-264, looked up, fragment)” registered an RT in series [1] (setting [5]) of 16.1 min. Besides, the MRT in series [2] (setting [6]) is given as 87.6.
For “BE 3-17: beta-endorphin fragment, residues 3-17 (GFMTSEKSQTPLVTL; Beta-endorphin; UniProt P01189 239-253, looked up, fragment)”, in series [1] (setting [7]), the RT turned out to be 24 min. This substance had an MRT in series [2] (setting [8]) of 6.2.
In series [1] (setting [5]), “BE 20-31: beta-endorphin C-terminal fragment, residues 20-31 (NAIIKNAYKKGE; Beta-endorphin; UniProt P01189 256-267, looked up, fragment)” yielded an RT of 14.3 min. In series [2] (setting [6]), the MRT stood at 72.2.
For “BE 2-14: beta-endorphin fragment, residues 2-14 (GGFMTSEKSQTPL; Beta-endorphin; UniProt P01189 238-250, looked up, fragment)”, the RT in series [1] (setting [7]) is reported as 20.1 min; in series [1] (setting [5]), 22.2 min. Moreover, the values for the MRT in series [2] (setting [8]) and in series [2] (setting [6]) were 18.9 and 25.1, respectively.
On to “BE 4-14: beta-endorphin fragment, residues 4-14 (FMTSEKSQTPL; Beta-endorphin; UniProt P01189 240-250, looked up, fragment)”, for which the RT in series [1] (setting [7]) came to 18.68 min.
On the same count and under the same terms, with “BE 3-12: beta-endorphin fragment, residues 3-12 (GFMTSEKSQT; Beta-endorphin; UniProt P01189 239-248, looked up, fragment)” the figure was 20.53 min.
In series [1] (setting [7]), “BE 8-14: beta-endorphin fragment, residues 8-14 (EKSQTPL; Beta-endorphin; UniProt P01189 244-250, looked up, fragment)” registered an RT of 16.27 min.
In turn, “BE 29-31: beta-endorphin fragment, residues 29-31 (KGE; Beta-endorphin; UniProt P01189 265-267, looked up, fragment)” displayed an RT in series [1] (setting [5]) of 5.4 min.
With “BE 3-14: beta-endorphin fragment, residues 3-14 (GFMTSEKSQTPL; Beta-endorphin; UniProt P01189 239-250, looked up, fragment)”, the RT in series [1] (setting [7]) is 20.1 min.
The same measure, in the same setting: with “BE 4-16: beta-endorphin fragment, residues 4-16 (FMTSEKSQTPLVT; Beta-endorphin; UniProt P01189 240-252, looked up, fragment)” the figure was 19.32 min; with “BE 7-14: beta-endorphin fragment, residues 7-14 (SEKSQTPL; Beta-endorphin; UniProt P01189 243-250, looked up, fragment)”, 14.92 min.
